Ends that are not written are not given here. * marks the point of attachment. X1 = (RS)‑2,3‑di(palmitoyloxy)propyl, CCCCCCCCCCCCCCCC(=O)OCC(C*)OC(=O)CCCCCCCCCCCCCCC
Target: mouse TLR2 on a murine dendritic cell line (mouse, UniProt Q9QUN7 25-784)
Experiment: cell-based or functional assay

Sequence of mouse TLR2 on a murine dendritic cell line (Q9QUN7 25-784): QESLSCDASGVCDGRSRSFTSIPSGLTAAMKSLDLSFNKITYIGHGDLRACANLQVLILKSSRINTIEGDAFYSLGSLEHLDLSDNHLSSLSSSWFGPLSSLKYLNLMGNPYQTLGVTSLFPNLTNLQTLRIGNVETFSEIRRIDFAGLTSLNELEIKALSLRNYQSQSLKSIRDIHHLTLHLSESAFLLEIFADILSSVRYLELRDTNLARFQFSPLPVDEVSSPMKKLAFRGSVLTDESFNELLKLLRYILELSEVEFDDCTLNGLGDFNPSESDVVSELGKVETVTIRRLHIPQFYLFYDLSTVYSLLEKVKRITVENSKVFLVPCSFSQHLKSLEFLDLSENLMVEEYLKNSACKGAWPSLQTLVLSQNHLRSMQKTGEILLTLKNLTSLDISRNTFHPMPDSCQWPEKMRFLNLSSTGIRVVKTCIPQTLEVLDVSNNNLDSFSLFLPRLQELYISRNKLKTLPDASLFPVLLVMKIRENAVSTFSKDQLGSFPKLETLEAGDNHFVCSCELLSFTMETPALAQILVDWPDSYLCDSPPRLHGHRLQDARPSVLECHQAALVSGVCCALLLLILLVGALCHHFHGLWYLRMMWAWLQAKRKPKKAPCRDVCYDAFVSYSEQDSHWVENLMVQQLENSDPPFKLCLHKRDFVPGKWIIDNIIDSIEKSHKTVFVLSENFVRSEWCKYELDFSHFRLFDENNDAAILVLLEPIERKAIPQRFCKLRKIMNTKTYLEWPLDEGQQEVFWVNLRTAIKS

Binder | IL-12 in supernatant of a murine dendritic cell line after 24 h (sandwich ELISA); concentration needed for similar stimulation, against Pam3CysSK4 [fold] | IL-12 in supernatant of a murine dendritic cell line after 24 h (sandwich ELISA); maximal stimulation level against Pam3CysSK4 [fold]
{1‑tetradecyl‑urea}-C(X1)SKKKK-NH2 (also: epimer mixture at C-2 of dipalmitoyloxypropyl) [U-Pam-14 (1-tetradecyl-urea-Cys((RS)-2,3-di(palmitoyloxy)-propyl)-Ser-Lys-Lys-Lys-Lys-NH2)] | 100 | 2
C(X1)SKKKK-NH2 (not fully specified (N-terminus); printed as 1-dodecadecyl-urea-Cys((RS)-2,3-di(palmitoyloxy)-propyl)-Ser-Lys-Lys-Lys-Lys-NH2; also: epimer mixture at C-2 of dipalmitoyloxypropyl) [U-Pam-12 (1-dodecadecyl-urea-Cys((RS)-2,3-di(palmitoyloxy)-propyl)-Ser-Lys-Lys-Lys-Lys-NH2)] | 100 | 2
